The RNAGym collection of RNA variant scans (doi:10.7554/elife.80360)

B1: Hairpin Ribozyme (parent)
chain: GUCCUCUUUCACGUGCGCGUGAAAGAGAGAAGUGAACCAGAGAAACACACGUUGUGGUAUAUUACCUGGUA

Variants of: B1
Test: self-cleavage, relative activity (ratio to wild type); higher = more cleavage; co-transcriptional

Variant	self-cleavage
U2A G57C	0.0768
G1C U58G	0.284
G1U A41G	0.0954
U2G G54C	0.155
G1U U14C	0.128
G1U U14A	0.041
U2A C50U	0.113
U2G U67C	0.102
C3A A24U	0.703
G1U C6U	0.139
U2C C3G	0.214
U2C C3U	0.131
U2C C12U	0.226
U2C C12A	0.205
U2C C12G	0.0835
G1U G57A	0.175
U2G C16U	0.478
U2G C16G	0.267
C3A A41C	1.07
C3A A41U	1.25
U2G A47C	0.358

Variant	self-cleavage
U2G A47G	0.0815
G1U A71C	0.273
G1U U70C	0.142
U2G G29C	0.122
U2C C46A	0.232
G1U C16A	0.111
U2A A11G	0.344
U2G A71C	0.77
U2C U67G	0.0822
C3A A45U	0.164
C3A A45G	0.197
C3A A45C	0.157
U2G A43G	0.21
U2G A43U	0.102
U2G C10G	0.287
U2G C10U	0.269
G1U C10G	0.231
G1U A28U	0.198
C3A A31G	0.425
G1U G13U	0.156
G1U G13C	0.151

Variant	self-cleavage
U2A G42C	0.145
U2A G42U	0.122
U2A U9A	0.201
U2G A49C	0.0246
U2G A49G	0.241
U2C U62A	0.0408
U2G G51C	0.359
U2A C46U	0.0639
U2A C37G	0.123
U2G U20A	0.225
U2G U20G	0.186
U2G U20C	0.385
U2A C12A	0.171
U2A C12G	0.175
U2A C12U	0.166
U2A G34U	0.665
U2A U53G	0.134
U2G G56C	0.0624
U2G G56U	0.0924
U2C G42U	0.203
U2G G25C	0.137

Variant	self-cleavage
U2G U8C	0.255
U2G U14A	0.216
U2A A43U	0.0943
U2C A26U	0.13
G1U C3A	0.161
G1U C3G	0.122
U2G C3A	0.786
G1C G57A	0.134
G1C G57C	0.118
C3A A49C	0.164
U2G G17U	0.327
U2G G17A	0.529
U2A A28G	0.434
U2A G17U	0.22
U2G C66U	0.163
G1U U2G	0.22
U2C A28C	0.117
U2C A28G	0
G1C U62G	0.4
G1C U62A	0.0347
